These results are taken from article PMC6797079.

Sequences and labels used below:
B1: sodium/iodide symporter (NIS), wild type, cerulean- or citrine-tagged [human] / itself (parent)
chain: MEAVETGERPTFGAWDYGVFALMLLVSTGIGLWVGLARGGQRSAEDFFTGGRRLAALPVGLSLSASFMSAVQVLGVPSEAYRYGLKFLWMCLGQLLNSVLTALLFMPVFYRLGLTSTYEYLEMRFSRAVRLCGTLQYIVATMLYTGIVIYAPALILNQVTGLDIWASLLSTGIICTFYTAVGGMKAVVWTDVFQVVVMLSGFWVVLARGVMLVGGPRQVLTLAQNHSRINLMDFNPDPRSRYTFWTFVVGGTLVWLSMYGVNQAQVQRYVACRTEKQAKLALLINQVGLFLIVSSAACCGIVMFVFYTDCDPLLLGRISAPDQYMPLLVLDIFEDLPGVPGLFLACAYSGTLSTASTSINAMAAVTVEDLIKPRLRSLAPRKLVIISKGLSLIYGSACLTVAALSSLLGGGVLQGSFTVMGVISGPLLGAFILGMFLPACNTPGVLAGLGAGLALSLWVALGATLYPPSEQTMRVLPSSAARCVALSVNASGLLDPALLPANDSSRAPSSGMDASRPALADSFYAISYLYYGALGTLTTVLCGALISCLTGPTKRSTLAPGLLWWDLARQTASVAPKEEVAILDDNLVKGPEELPTGNKKPPGFLPTNEDRLFFLGQKELEGAGSWTPCVGHDGGRDQQETNL

The variants in this assay derive from B1. Nature of the assay: FRET. Conditions: with itself, n = 2, minimum of 20 cells analyzed in each n, read off a plot.

Turning to chain 1 D237A, the response (arbitrary units) runs as follows: (HeLa cells, parent: 20) 0; (SW1736 cells, parent: 0) -70.
For chain 1 A525F, the response (arbitrary units) was found to be 120 (HeLa cells, parent: 20) and 30 (SW1736 cells, parent: 0).
